Laboratory results from paper PMC13534707, “Vps1 drives membrane constriction and fission necessary for endosomal protein sorting” (The EMBO Journal, 2026).

How the values were obtained:
[1] = target: Vps1(ΔInsB) (S. cerevisiae) (UniProt P21576); assay: SEC-MALS; purified Vps1 (~0.32 mg/ml) on Superose 6 10/300 GL, 20 mM HEPES pH 7.5, 150 mM NaCl, room temperature; self-association in solution
[2] = target: the molecule itself; assay: as above

| Molecule | stoichiometry N [2] | also measured |
| --- | --- | --- |
| Vps1(ΔInsB) (from UniProt P21576 1-535; P21576 613-704) (enzyme) |  | stoichiometry N [1]: 2 |
| Vps1(Δ3K) (enzyme, S. cerevisiae, UniProt P21576 1-704, looked up, Vps1, S. cerevisiae, lacking the lysine-rich 3K motif (residues 591-593) of Insert B; Same tags as m1; source: bacterially expressed, T7 Express (NEB), purified (Strep-trap HP or Streptactin XT)) MDEHLISTINKLQDALAPLGGGSQSPIDLPQITVVGSQSSGKSSVLENIVGRDFLPRGTGIVTRRPLVLQLINRRPKKSEHAKVNQTANELIDLNINDDDKKKDESGKHQNEGQSEDNKEEWGEFLHLPGKKFYNFDEIRKEIVKETDKVTGANSGISSVPINLRIYSPHVLTLTLVDLPGLTKVPVGDQPPDIERQIKDMLLKYISKPNAIILSVNAANTDLANSDGLKLAREVDPEGTRTIGVLTKVDLMDQGTDVIDILAGRVIPLRYGYIPVINRGQKDIEHKKTIREALENERKFFENHPSYSSKAHYCGTPYLAKKLNSILLHHIRQTLPEIKAKIEATLKKYQNELINLGPETMDSASSVVLSMITDFSNEYAGILDGEAKELSSQELSGGARISYVFHETFKNGVDSLDPFDQIKDSDIRTIMYNSSGSAPSLFVGTEAFEVLVKQQIRRFEEPSLRLVTLVFDELVRMLKQIISQPKYSRYPALREAISNQFIQFLKDATIPTNEFVVDIIKAEQTYINTAHPDLLKGSQAMVMVEEKLHPRQVAVDPKTGKPLPTQPSSSKAPVMEEKSGFFGGFFSTKNLAALESPPPVLKATGQMTERETMETEVIKLLISSYFSIVKRTIADIIPKALMLKLIVKSKTDIQKVLLEKLYGKQDIEELTKENDITIQRRKECKKMVEILRNASQIVSSV | 4 |  |
| Vacuolar protein sorting-associated protein 1 (Vps1), wild type, recombinant (enzyme, S. cerevisiae, UniProt P21576 1-704, looked up, Vps1, S. cerevisiae; the Vps1 gene amplified from genomic DNA and cloned into pET15b; A TEV site follows the N-terminal 6xHis tag; also called WT; wild-type Vps1; source: bacterially expressed, T7 Express (NEB), purified (Strep-trap HP or Streptactin XT)) MDEHLISTINKLQDALAPLGGGSQSPIDLPQITVVGSQSSGKSSVLENIVGRDFLPRGTGIVTRRPLVLQLINRRPKKSEHAKVNQTANELIDLNINDDDKKKDESGKHQNEGQSEDNKEEWGEFLHLPGKKFYNFDEIRKEIVKETDKVTGANSGISSVPINLRIYSPHVLTLTLVDLPGLTKVPVGDQPPDIERQIKDMLLKYISKPNAIILSVNAANTDLANSDGLKLAREVDPEGTRTIGVLTKVDLMDQGTDVIDILAGRVIPLRYGYIPVINRGQKDIEHKKTIREALENERKFFENHPSYSSKAHYCGTPYLAKKLNSILLHHIRQTLPEIKAKIEATLKKYQNELINLGPETMDSASSVVLSMITDFSNEYAGILDGEAKELSSQELSGGARISYVFHETFKNGVDSLDPFDQIKDSDIRTIMYNSSGSAPSLFVGTEAFEVLVKQQIRRFEEPSLRLVTLVFDELVRMLKQIISQPKYSRYPALREAISNQFIQFLKDATIPTNEFVVDIIKAEQTYINTAHPDLLKGSQAMVMVEEKLHPRQVAVDPKTGKPLPTQPSSSKAPVMEEKSGFFGGFFSTKNKKKLAALESPPPVLKATGQMTERETMETEVIKLLISSYFSIVKRTIADIIPKALMLKLIVKSKTDIQKVLLEKLYGKQDIEELTKENDITIQRRKECKKMVEILRNASQIVSSV |  | binding result [2]: binds |
| Vps1(G436D) (enzyme, S. cerevisiae, UniProt P21576 1-704, looked up, Vps1, S. cerevisiae, with G436D made by site-directed mutagenesis of the pET15b construct; Same tags as m1; source: bacterially expressed, T7 Express (NEB), purified (Strep-trap HP or Streptactin XT)) MDEHLISTINKLQDALAPLGGGSQSPIDLPQITVVGSQSSGKSSVLENIVGRDFLPRGTGIVTRRPLVLQLINRRPKKSEHAKVNQTANELIDLNINDDDKKKDESGKHQNEGQSEDNKEEWGEFLHLPGKKFYNFDEIRKEIVKETDKVTGANSGISSVPINLRIYSPHVLTLTLVDLPGLTKVPVGDQPPDIERQIKDMLLKYISKPNAIILSVNAANTDLANSDGLKLAREVDPEGTRTIGVLTKVDLMDQGTDVIDILAGRVIPLRYGYIPVINRGQKDIEHKKTIREALENERKFFENHPSYSSKAHYCGTPYLAKKLNSILLHHIRQTLPEIKAKIEATLKKYQNELINLGPETMDSASSVVLSMITDFSNEYAGILDGEAKELSSQELSGGARISYVFHETFKNGVDSLDPFDQIKDSDIRTIMYNSSDSAPSLFVGTEAFEVLVKQQIRRFEEPSLRLVTLVFDELVRMLKQIISQPKYSRYPALREAISNQFIQFLKDATIPTNEFVVDIIKAEQTYINTAHPDLLKGSQAMVMVEEKLHPRQVAVDPKTGKPLPTQPSSSKAPVMEEKSGFFGGFFSTKNKKKLAALESPPPVLKATGQMTERETMETEVIKLLISSYFSIVKRTIADIIPKALMLKLIVKSKTDIQKVLLEKLYGKQDIEELTKENDITIQRRKECKKMVEILRNASQIVSSV | 2 |  |
| Vps1(Δ4F) (enzyme, S. cerevisiae, UniProt P21576 1-704, looked up, Vps1, S. cerevisiae, lacking the phenylalanine-rich 4F motif (residues 579-587) of Insert B; Same tags as m1; source: bacterially expressed, T7 Express (NEB), purified (Strep-trap HP or Streptactin XT)) MDEHLISTINKLQDALAPLGGGSQSPIDLPQITVVGSQSSGKSSVLENIVGRDFLPRGTGIVTRRPLVLQLINRRPKKSEHAKVNQTANELIDLNINDDDKKKDESGKHQNEGQSEDNKEEWGEFLHLPGKKFYNFDEIRKEIVKETDKVTGANSGISSVPINLRIYSPHVLTLTLVDLPGLTKVPVGDQPPDIERQIKDMLLKYISKPNAIILSVNAANTDLANSDGLKLAREVDPEGTRTIGVLTKVDLMDQGTDVIDILAGRVIPLRYGYIPVINRGQKDIEHKKTIREALENERKFFENHPSYSSKAHYCGTPYLAKKLNSILLHHIRQTLPEIKAKIEATLKKYQNELINLGPETMDSASSVVLSMITDFSNEYAGILDGEAKELSSQELSGGARISYVFHETFKNGVDSLDPFDQIKDSDIRTIMYNSSGSAPSLFVGTEAFEVLVKQQIRRFEEPSLRLVTLVFDELVRMLKQIISQPKYSRYPALREAISNQFIQFLKDATIPTNEFVVDIIKAEQTYINTAHPDLLKGSQAMVMVEEKLHPRQVAVDPKTGKPLPTQPSSSKAPVMEEKTKNKKKLAALESPPPVLKATGQMTERETMETEVIKLLISSYFSIVKRTIADIIPKALMLKLIVKSKTDIQKVLLEKLYGKQDIEELTKENDITIQRRKECKKMVEILRNASQIVSSV | 4 |  |
